The target in assay [1] is T1, human IL-23R expressed on the cell surface of stably transfected iLite and HEK cell lines (human, UniProt Q5VWK5 24-629).
T1 construct: whole, on cells; Same receptor on two transfected cell lines; the cell line is named under assay; also called human IL-23R iLite cells; human IL-23R HEK cells
T1 sequence (looked up): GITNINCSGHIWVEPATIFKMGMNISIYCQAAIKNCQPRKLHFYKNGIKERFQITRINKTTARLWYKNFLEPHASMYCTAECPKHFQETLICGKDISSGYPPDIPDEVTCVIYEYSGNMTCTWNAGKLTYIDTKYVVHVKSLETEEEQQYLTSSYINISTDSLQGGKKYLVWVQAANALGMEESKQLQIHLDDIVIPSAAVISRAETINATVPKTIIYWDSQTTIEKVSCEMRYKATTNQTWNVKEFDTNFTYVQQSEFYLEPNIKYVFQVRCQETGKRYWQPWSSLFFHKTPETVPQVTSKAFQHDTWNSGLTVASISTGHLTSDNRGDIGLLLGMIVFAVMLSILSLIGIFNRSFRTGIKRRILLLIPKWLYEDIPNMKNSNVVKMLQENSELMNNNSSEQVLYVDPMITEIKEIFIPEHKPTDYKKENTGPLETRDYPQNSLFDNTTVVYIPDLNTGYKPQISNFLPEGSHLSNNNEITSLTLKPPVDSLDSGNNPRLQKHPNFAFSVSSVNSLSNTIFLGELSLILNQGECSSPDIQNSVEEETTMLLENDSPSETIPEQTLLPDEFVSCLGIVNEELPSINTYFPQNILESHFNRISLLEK
The assay is described as follows: flow cytometry on human IL-23R HEK cells, Expt D (8-point, 96well). The procedure, abridged: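 Serially diluted IL-23R mAbs bound to mixed HEK-IL-23R and parental HEK cells for 30 min at 37 °C, in duplicate. After washes, 647 detection antibody geometric MFI measured on single viable (Sytox Green-negative) cells and fitted to a variable-slope dose-response against log mAb concentration.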

For assay [2], the target named is T1, human IL-23R expressed on the cell …. As to the kind of experiment: flow cytometry on human IL-23R HEK cells, Expt E (11-point, 384well). The gist of the method: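 Antibody bound to HEK-IL-23R cells 30 min at 37 °C over 11 concentrations; after washes, Sytox Green added and cells run on iQue. Geometric MFI of 647 detection antibody on single viable cells fitted by variable-slope dose–response.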
A general note: In flow cytometry, cells or beads pass a laser one at a time.

A value given as a limit tells only on which side of the number the result lay.

B1: I23RB27 (antibody, mouse IgG2a, kappa, V domains shown)
VH: QVQLKESGPDLVQPSQTLSLTCTVSGFSLTSYGVHWVRQPPGKGLEWVGTLGWDDKKSYNSALKSRLSISRDTSKSQVFLKLSSLQTEDTAMYYCTKEDVSYAMDFWGQGTTLTVSS
VL: DIQMTQSPTSLAVSLGQRATISCRASESVEYYGTSLMHWYQQKPGQPPKLLIYAASNVESGVPARFSGSGSGTDFSLNIHPVEEEDIAMYFCQQGKKVPWTFGAGTKLEMKR
notes: immunization; mouse IgG2a/kappa
Consider B1, for which the EC50 in assay [1] is 3.5 nM; in assay [2], above 50 nM. Further, in assay [2], the “MFI (6.4 nM)” value came out at 153000 MFI.

B2: I23RB31 (antibody, mouse IgG2a, kappa, V domains shown)
VH: EFQLQQSGAEMVRPGASVKLSCKASGYTFTGYWMNWVKQRPGQGLEWIGKIDPSDTETHYNQNFKDKATLTVDKSSSTAYMQLNSLTSEDSAVYYCARWGLGRNFAMDYWGQGTTLTVSS
VL: DIVLTQSPATLSVTPGDRVSLSCRASQSISDHLHWYQQKSHESPRLLIKFASQSISGIPSRFSGSGSGSDFTLSIDSVEPEDVGVYYCQNGHSFPLTFGSGTKLEIKR
notes: as for B1
On to B2, for which the values for the EC50 in assay [1] and in assay [2] were 1.7 nM and above 50 nM, respectively. Further, the “MFI (6.4 nM)” value in assay [2] turned out to be 78600 MFI.

B3: I23RB182 (antibody, mouse IgG2a, kappa, V domains shown)
VH: EVQLQQSGPGLVKPSQSLSLTCSVTGYSITSGYFWNWLRQFPGSKLEWMGFIDNDGSNDYNPSLKNRISITRDTSKNQFFLRLNSVTTEDTATYYCARGRLGFFDSWGPGTTLTVSS
VL: DIVMTQSPAIMSASLGEKVTMSCRASSSVNYMYWYQQKSDASPKLWIYYTSNLAPGVPARFSGSGSGNSYSLTISSMEGEDAATYYCQQFTNSPWTFGAGTKLELKR
notes: as for B1
In turn, B3 returned an EC50 in assay [1] of 36.4 nM. Also, in assay [2], the EC50 is above 50 nM and the “MFI (6.4 nM)” value came to 26200 MFI.

B4: I23RB36 (antibody, mouse IgG2a, kappa, V domains shown)
VH: QIQLVQSGAELVKPGASVKLSCTTSGFNIKDTYIHWMKQRPEQGLEWIGRIDPANGNTIYASKFQGKATLTTDTSSNTAYMLLSSLTSGDTAVYYCTRGTSWFAYWGQGTTVTVSS
VL: DIVMTQSPKSMSMSVGERVTLSCKASENVGTSVSWFQQKPEQSPKLLIYGASNRYTGVPDRFTGSGSATDFTLTISSVQAEDLADYHCGQSYSYPRTFGGGTKLEIKR
notes: as for B1
Take B4: the response in assay [1] was half-maximal at 0.4 nM (EC50). In assay [2], the concentration for a half-maximal effect (EC50) was determined as 7.3 nM and the “MFI (6.4 nM)” value came out at 171000 MFI.

B5: I23RB39 (antibody, mouse IgG2a, kappa, V domains shown)
VH: EVQLQQSGPELVKPGAPVKISCKASGYTFTNYYIHWVKQRPGQGLEWIGYIYPGNGGTAYNQKFKDKATLTADNPSSTAYMQLSSLTSEDSAVYFCARSRGGSRNYFDYWGQGTTLTVSS
VL: DIQMTQSHKFMSTSVGDRVSITCKASQDVSTAVAWYQQKPGQSPKLLIYSAFYRYTGVPDRFTGSGSGTDFTFTISSVQAEDLAVYYCQQHYSSPRTFGAGTKLELKR
notes: as for B1
In the case of B5, in assay [1], the concentration giving a half-maximal response (EC50) came to 0.3 nM. Further, in assay [2], it took 3.8 nM to reach a half-maximal effect (EC50) and the “MFI (6.4 nM)” value came to 277000 MFI.

B6: I23RB188 (antibody, mouse IgG2a, kappa, V domains shown)
VH: QIQLVQSGPELKKPGETVKISCKASGYTFTNYGMNWVKQAPGKGLKWMGWINTYTGAPTYADDFKGRFAFSLETSASTAYLQINNFKNEDTATYFCARGNGYPYYYGINYWGQGTSVTVSS
VL: DVQMIQSPSSLSASLGERVSLTCRASQEISGNLSWLQQKPDGTIKRLIYAASTLDSGVPKRFSGSRSGSDYSLTISSLESEDFADYYCLQYASYPWTFGAGTRLEIKR
notes: as for B1
As to B6, in assay [1], the EC50 was found to be 2 nM. In assay [2], the EC50 is above 50 nM and the “MFI (6.4 nM)” value amounted to 90100 MFI.

B7: I23RB58 (antibody, mouse IgG2a, kappa, V domains shown)
VH: EVKLVESGGGLVKPGGSLKLSCAASGFSFIIYTMSWVRQTPEKRLEWVAYITSGGGITYYPDSVKGRFTISRDNARNTLYLQMSSLRSEDTAMYYCARHEGDYYDDYYRIGYAMDYWGQGTSVTVSS
VL: DIVMTQTPASLAVSLGQRATISCRASESVDSYGNSFMHWYQQKPGQPPKLLIYRASNLESGIPARFSGSGSRTDFTLTINPVEADDVATYYCQQSNEDPLTFGAGTKLEMKR
notes: as for B1
Consider B7, for which the concentration for a half-maximal effect (EC50) in assay [1] was 23.1 nM; in assay [2] it was 11.6 nM. For the same molecule, in assay [2], the “MFI (6.4 nM)” value was 150000 MFI.

A word on the EC50: it is the concentration that produces a half-maximal response.

These data come from patent US20250179196A1 (Janssen / Centocor, published 2025).
